Laboratory results: patent US6623738 (University of California, dated 2003)
Each block holds one binder with its values, some of them ahead of it.

Tests used:
[1] = molecular target: T1, mouse neuropilin-2(a5), myc-tagged, expressed in COS-7 cells (mouse, UniProt O35375 21-931); assay: equilibrium binding of AP fusion to transfected COS cells (a5 isoform), Hill fit
T1 construct: also called a5 isoform of neuropilin-2; SR2(a)5
T1 sequence: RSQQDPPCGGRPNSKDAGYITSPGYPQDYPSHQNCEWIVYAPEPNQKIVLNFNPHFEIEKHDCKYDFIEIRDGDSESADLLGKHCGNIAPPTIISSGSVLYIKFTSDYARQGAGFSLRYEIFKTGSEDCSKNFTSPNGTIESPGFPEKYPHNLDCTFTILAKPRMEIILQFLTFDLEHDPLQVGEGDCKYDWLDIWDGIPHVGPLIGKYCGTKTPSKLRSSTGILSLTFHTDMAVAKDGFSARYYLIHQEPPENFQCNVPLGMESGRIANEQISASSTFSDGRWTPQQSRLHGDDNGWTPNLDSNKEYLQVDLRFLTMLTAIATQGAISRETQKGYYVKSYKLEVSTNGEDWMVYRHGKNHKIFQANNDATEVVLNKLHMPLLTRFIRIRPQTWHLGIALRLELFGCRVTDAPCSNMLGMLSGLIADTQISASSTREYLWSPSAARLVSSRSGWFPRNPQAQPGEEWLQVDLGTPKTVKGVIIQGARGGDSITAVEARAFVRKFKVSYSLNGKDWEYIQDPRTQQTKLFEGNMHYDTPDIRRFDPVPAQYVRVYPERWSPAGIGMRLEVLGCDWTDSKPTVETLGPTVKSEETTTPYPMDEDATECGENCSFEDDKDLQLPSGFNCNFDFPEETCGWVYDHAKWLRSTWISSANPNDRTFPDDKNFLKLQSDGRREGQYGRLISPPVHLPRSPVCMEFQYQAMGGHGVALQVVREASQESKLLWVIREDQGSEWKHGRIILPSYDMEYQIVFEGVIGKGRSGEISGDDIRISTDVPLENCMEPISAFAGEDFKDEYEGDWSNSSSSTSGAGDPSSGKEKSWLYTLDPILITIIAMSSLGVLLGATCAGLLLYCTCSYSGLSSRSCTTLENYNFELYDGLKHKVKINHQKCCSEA
Experimental: (§1) FIGS. 5A–5C. Equilibrium binding of semaphorin-AP fusion proteins to neuropilin-expressing cells. Transfected or control COS cells were incubated with concentrated media containing the indicated concentrations of semaphorin-AP fusion proteins. AP activity derived from bound fusion proteins was measured […] at 405 nm; specific binding was obtained after subtraction of background from control cells. Specific binding curves to cells expressing neuropilin-1 (closed circles) or […] are shown for Sema III-AP (A), Sema E-AP (B), and Sema IV-AP (C). Dissociation constants for interaction with neuropilin-2-expressing cells were 0.29 for Sema E-AP and 0.09 nM for Sema IV-AP.
(§2) We estimated the binding affinity of the AP fusions of Sema III, Sema E and Sema IV to cells expressing neuropilin-1 or neuropilin-2 in equilibrium binding experiments. For these experiments, we used the a5 isoform of neuropilin-2. […] Those for Sema IV binding to neuropilin-1 and neuropilin-2 were 30 nM and 5 nM, respectively. […] Similar Kd values were obtained using the b5 isoform of neuropilin-2 and the degree of binding of different semaphorins to cells all isoforms tested appeared similar.

[2] = molecular target: T2, neuropilin-1 transiently expressed in COS-7 cells (Rattus norvegicus (Rat), UniProt Q9QWJ9 22-922); assay: equilibrium binding of AP fusion to transfected COS cells, Hill fit
T2 construct: also called npn-1; SR1
Experimental: as §1, §2

[3] = molecular target: T1, mouse neuropilin-2(a5), myc-tagged, …; assay: equilibrium binding of AP fusion to neuropilin-2-expressing COS cells (figure legend)
Experimental: as §1, §2

Kd [1]: 5 nM | Kd [2]: 30 nM | Kd [3]: 0.09 nM
B1: Sema IV-AP fusion protein (human Sema IV fused to alkaline phosphatase) (ligand, UniProt Q13275 19-785, looked up)
chain: SFPTQDHLPATPRVRLSFKELKATGTAHFFNFLLNTTDYRILLKDEDHDRMYVGSKDYVLSLDLHDINREPLIIHWAASPQRIEECVLSGKDVNGECGNFVRLIQPWNRTHLYVCGTGAYNPMCTYVNRGRRAQATPWTQTQAVRGRGSRATDGALRPMPTAPRQDYIFYLEPERLESGKGKCPYDPKLDTASALINEELYAGVYIDFMGTDAAIFRTLGKQTAMRTDQYNSRWLNDPSFIHAELIPDSAERNDDKLYFFFRERSAEAPQSPAVYARIGRICLNDDGGHCCLVNKWSTFLKARLVCSVPGEDGIETHFDELQDVFVQQTQDVRNPVIYAVFTSSGSVFRGSAVCVYSMADIRMVFNGPFAHKEGPNYQWMPFSGKMPYPRPGTCPGGTFTPSMKSTKDYPDEVINFMRSHPLMYQAVYPLQRRPLVVRTGAPYRLTTIAVDQVDAADGRYEVLFLGTDRGTVQKVIVLPKDDQELEELMLEEVEVFKDPAPVKTMTISSKRQQLYVASAVGVTHLSLHRCQAYGAACADCCLARDPYCAWDGQACSRYTASSKRRSRRQDVRHGNPIRQCRGFNSNANKNAVESVQYGVAGSAAFLECQPRSPQATVKWLFQRDPGDRRREIRAEDRFLRTEQGLLLRALQLSDRGLYSCTATENNFKHVVTRVQLHVLGRDAVHAALFPPLSMSAPPPPGAGPPTPPYQELAQLLAQPEVGLIHQYCQGYWRHVPPSPREAPGAPRSPEPQDQKKPRNRRHHPPDT
notes: written as in the name; Partially purified conditioned medium; also called Sema IV/Sema 3F; not shown: secreted alkaline phosphatase in pSecTag-A

Kd [1]: 18 nM | Kd [2]: 5 nM | Kd [3]: 0.29 nM
B2: Sema E-AP fusion protein (mouse Sema E fused to alkaline phosphatase) (ligand, UniProt Q62181 21-751, looked up)
chain: GSSQPQARVYLTFDELRETKTSEYFSLSHQQLDYRILLMDEDQDRIYVGSKDHILSLNINNISQEPLSVFWPASTIKVEECKMAGKDPTHGCGNFVRVIQTFNRTHLYVCGSGAFSPVCTYLNRGRRSEDQVFMIDSKCESGKGRCSFNPNVNTVSVMINEELFSGMYIDFMGTDAAIFRSLTKRNAVRTDQHNSKWLSEPMFVDAHVIPDGTDPNDAKVYFFFKERLTDNNRSTKQIHSMIARICPNDTGGQRSLVNKWTTFLKARLVCSVTDEDGPETHFDELEDVFLLETDNPRTTLVYGIFTTSSSVFKGSAVCVYHLSDIQTVFNGPFAHKEGPNHQLISYQGRIPYPRPGTCPGGAFTPNMRTTKDFPDDVVTFIRNHPLMYNSIYPIHRRPLIVRIGTDYKYTKIAVDRVNAADGRYHVLFLGTDRGTVQKVVVLPTNSSASGELILEELEVFKNHVPITTMKISSKKQQLYVSSNEGVSQVSLHRCHIYGTACADCCLARDPYCAWDGHSCSRFYPTGKRRSRRQDVRHGNPLTQCRGFNLKAYRNAAEIVQYGVRNNSTFLECAPKSPQASIKWLLQKDKDRRKEVKLNERIIATSQGLLIRSVQDSDQGLYHCIATENSFKQTIAKINFKVLDSEMVAVVTDKWSPWTWAGSVRALPFHPKDILGAFSHSEMQLINQYCKDTRQQQQLGEEPQKMRGDYGKLKALINSRKSRNRRNQLPES
notes: written as in the name; Partially purified conditioned medium; not shown: secreted alkaline phosphatase of vector APtag-4
